Assay results as given in the supplement of paper PMC9170038.

tested on: MS2 coat protein; test: apparent KD of MS2 coat protein, switch ON state; designed switch direction (-1 OFF switch, 1 ON switch): 1; higher = weaker reporter binding; conditions: FMN input: 0 or 200 uM; Eterna round: R93 (includes R88 designs)
How it was run: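 The designed RNA switches were transcribed on-chip from Illumina sequencing clusters. In 100 mM Tris-HCl pH 7.5, 80 mM KCl and 4 mM MgCl2, without or with constant ligand, they were titrated with SNAP-549-labelled MS2 coat protein from 0.7 or 1.5 nM to 3 µM in twofold steps. Apparent KD is the per-design median of normalised cluster binding-curve fits.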

Compared with “GAAAAACAUGAGGAUCACCCAUGUGAUAACAUGGGAGGAUAUACGAGGACGAUAGUCAAGGUAGAAGGCCUAAAAG [Garnet 60]”, “AAAAAACAUGAGGAUCACCCAUGUAAAAAAAACACAGGAUAUCCCUUUUUUAAAUGGGAAGGAGAAGGGUGAAAAA [Nob's Hobby 11 - Jieux - Same State 1]” is 3.1-fold lower in “apparent KD of MS2 coat protein” value: 0.132 µM for the first, 0.0431 µM for the second.

Going from “AAAACACAUGAGGAUCACCCAUGUAGAAAUACUGGAGGAUAUGCUAAAACGAAAGACAAUGUAGAAGGCCGAAAAG [saturn 11]” to “AAAUAACAUGAGGAUCACCCAUGUUACGACUUUACAGGAUAUGUGGGUGAAAAUAGCAUGACAGAAGGGUACAGUA [SameState1 Malc#36]”, the “apparent KD of MS2 coat protein” value rises from 0.0716 µM to 0.205 µM (2.9-fold).

First: GGAAAUAAAAGAGAGGAUAUCCAAAGGAAAACAUGAGGAUCACCCAUGUAAAAGGAAGGAAAGUGGGAGAAGGCUCAAAAUAAGG [salish99-ss2-008]
Second: CAUCAUGCGCCUAAGGAUAUGUCCCACAAGACAUGAGGAUCACCCAUGUAGCCAAUUAAUACGGUGCAGAAGGUGGAGCGCAUGC [Qusotior]
The “apparent KD of MS2 coat protein” value of the first is 11-fold lower: 0.0296 µM for the first, 0.315 µM for the second.

“AGGAAACAUGAGGAUCACCCAUGUAAAAAUAUGGGAGGAUAUACGAAGACGAAAGUAAGAGUAGAAGGCCUAAAAG [Garnet 9]” and “CGAAAGGAGAGAGAGGAUAUCCAAAGGAAAACAUGAGGAUCACCCAUGUAGAAGGUAGGAGAUUGGGAGAAGGCUCAAGCAAAAG [salish99-ss2-155]” are within 1.5-fold of each other in “apparent KD of MS2 coat protein” value: 0.0239 µM for the first, 0.029 µM for the second.

“UAAAAACAUGAGGAUCACCCAUGUAGAAAUAUGGGAGGAUAUACAAAGACGAAAGUCAAAGUAGAAGGCCUGAAAU [Mat - Same State 1 - Eli mod - 85]” and “GAAAAACAUGAGGAUCACCCAUGUGUAAAUAUGGGAGGAUAUACGAAGACGUAAGUCAAAGUAGAAGGCCUAAAAG [Garnet 92]” are within 1.5-fold of each other in “apparent KD of MS2 coat protein” value: 0.0215 µM for the first, 0.0247 µM for the second.

Going from “UUUAAUUAUACGAAGGAUAUCGGUAAUUAGACAUGAGGAUCACCCAUGUUAUAUGGUUAAAUAUUCGAGAAGGUCGAGGGUGAAA [JR_SS002_Sub506]” to “AUAAAACAUGAGGAUCACCCAUGUAAAAAUAUGGGAGGAUAUGCGAAAUAAAAUAAAUAAGCAGAAGGCCUAAAAA [SS! MT 19]”, the “apparent KD of MS2 coat protein” value falls from 0.0302 µM to 0.0119 µM (2.5-fold).

“AAUAAUUAUACGAAGGAUAUCGGUAAUUAGACAUGAGGAUCACCCAUGUAAUAUGGUUAAAUAAUCGAGAAGGUCGAGGGUGAAA [JR_SS002_Sub503]” and “CAUCAUGCGUCUAAGGAUAUGUCUCACAAGACAUGAGGAUCACCCAUGUAGAAUAAAUAAAUGAUGCAGAAGGUGGAGCGCAUGC [Erzausis]” are within 1.5-fold of each other in “apparent KD of MS2 coat protein” value: 0.0553 µM for the first, 0.0532 µM for the second.

“UGAAGACAUGAGGAUCACCCAUGUGGGAUUAUGGGAGGAUAUACAAAGACGAGAGUCAGAGUAGAAGGCCUAGGAA [salish99-ss1-116(!)]” and “AUAUGAGCUAUUGAGGAUAUCCAUAACAAGACAUGAGGAUCACCCAUGUAAUCAAAACAAUAAUGGGAGAAGGCAAUAGCUCAAU [SS 2 M48]” are within 1.5-fold of each other in “apparent KD of MS2 coat protein” value: 0.0361 µM for the first, 0.0367 µM for the second.

“CAUAGACAUGAGGAUCACCCAUGUAGAAUUAUGGGAGGAUAUACAAAGACGAGAGUCAGAGUAGAAGGCCUAGGAU [salish99-ss1-162]” and “AAGACACAUGAGGAUCACCCAUGUCAAGAGAGACGAGGAUAUCUGAAAAAAAAAAAAAAAGGAGAAGGCGUGAAAA [Same State of Confusion]” are within 1.5-fold of each other in “apparent KD of MS2 coat protein” value: 0.0241 µM for the first, 0.0335 µM for the second.

Compared with “AAAAAAAAAACAUAGGAUAUCCGGGCCGGGACAUGAGGAUCACCCAUGUCAAAAAAAAUUGGCCCGGAGAAGGAUGAAAAAAAAAA [SAmeState2-II]”, “GCAAAACAUGAGGAUCACCCAUGUCAACAAAAUCAAGGAUAUGAGCCGGCAUUGCCGGCAUCAGAAGGUGAACCUU [Gemaisinve]” is 8.4-fold higher in “apparent KD of MS2 coat protein” value: 0.0115 µM for the first, 0.0961 µM for the second.

Going from “AAAAACAUGGUGCAGGAUAUAUUAAUAGUCACAUGAGGAUCACCCAUGUUCAUAUAUAUGAACGAGUAGAAGGGCGAUGAAAAAA [Mat - Same state - Malcolm Mod - D110]” to “AACAAUCUAUCUGAGGAUAUCAUAAAAAAAACAUGAGGAUCACCCAUGUGCAGGAAAACUGCAUAUGAGAAGGCAGAUAGAUUGA [SS2: 1102]”, the “apparent KD of MS2 coat protein” value falls from 0.181 µM to 0.00873 µM (21-fold).

First: AAUAUACAUGAGGAUCACCCAUGUUUUAAUAGCUGAGGAUAUACGGGUGAAAAUAGCAUAGUAGAAGGCGGGUGUA [SameState1 Malc#9]
Second: GGGAGACAUGAGGAUCACCCAUGUGAGAAGAGGCGAGGAUAUCGAAAGAAAGAAGAGAAACGAGAAGGCGCGAGGU [salish99-SS1-055]
The “apparent KD of MS2 coat protein” value of the first is 2.3-fold higher: 0.0922 µM for the first, 0.0398 µM for the second.

Compared with “AAUAUAUUAAGUGAGGAUAUCAUAGAAAAAACAUGAGGAUCACCCAUGUGGGAAACCUGGUCGGGUGAGAAGGCACUUAAUAUAU [Samwise Clockwise 29 - Jieux - Same State 2]”, “AAUAACAAAAGAAAGGAUAUGCGCACAGGAACAUGAGGAUCACCCAUGUGCCGCCAAGGCGGAUAGCAGAAGGUUCACACGCAUA [Default title]” is 3.7-fold lower in “apparent KD of MS2 coat protein” value: 0.0714 µM for the first, 0.0194 µM for the second.

First: AACAAUCUAUCUGAGGAUAUCAUGAAAAAGACAUGAGGAUCACCCAUGUACCAGGAAACUGGUUAUGAGAAGGCAGAUAGAUUGA [SS2: 1116]
Second: CAUCAUGCGCCUAAGGAUAUGUCUCACAAGACAUGAGGAUCACCCAUGUAGAAUAAAUAAAUGAUGCAGAAGGUGGAGUGCAUGA [Inares]
The “apparent KD of MS2 coat protein” value of the first is 5.4-fold lower: 0.00932 µM for the first, 0.0506 µM for the second.

First: AAUAAUUAUAACGAGGAUAUCCGUAAUAAGACAUGAGGAUCACCCAUGUAAUAAGGGUAAAUAAAGGAGAAGGCGUAGGGUGAAA [JR_SS002_Sub002]
Second: GGAAAGGAGAGAGAGGAUAUCCAAAGGAAAACAUGAGGAUCACCCAUGUAGAAGGUAGGAAAUUGGGAGAAGGCUCAAGAAAGAG [salish99-ss2-138]
The “apparent KD of MS2 coat protein” value of the first is 2.1-fold higher: 0.0443 µM for the first, 0.021 µM for the second.

Compared with “GAAAAACAUGAGGAUCACCCAUGUAGAAAUAUGGGAGGAUAUACAAAGACGAAAGUCAAAGUAGAAGGCCUCAAAG [JL S1 M-MoE mod 2 In the Red]”, “UAUCAUUACACGAAGGAUAUCGAUAAUAGAACAUGAGGAUCACCCAUGUGAAAUAAAAUACAGAACGAGAAGGUCGAGGGUGAAG [JR_SS002_Sub703]” is 4.3-fold lower in “apparent KD of MS2 coat protein” value: 0.0849 µM for the first, 0.0197 µM for the second.

“AAAUAAAGGACUGAGGAUAUACCACAUGAAACAUGAGGAUCACCCAUGUUAAAAAACAAAGGGUGGUAGAAGGCAGUCCACAAAC [Same State 2.5f ( so lets mod hyphema)]” and “AGAAAAAAAACGCAGGAUAUCCAAAAGAAAACAUGAGGAUCACCCAUGUAAAAGAAAAUAAAAUGGGAGAAGGGCGAAAAAAAGA [Mat - Same State 2 - Eli mod - D93]” are within 1.5-fold of each other in “apparent KD of MS2 coat protein” value: 0.00926 µM for the first, 0.00991 µM for the second.

“AAGAGACAUGAGGAUCACCCAUGUAGGAUUAUGGGAGGAUAUACAAAGACGAGAGUCAGAGUAGAAGGCCUAGGAG [salish99-ss1-131(!)]” and “GGCUGCAAUUAUGAGGAUAUGUUUGGAUGAACAUGAGGAUCACCCAUGUGGCGAUAGCCGUCUAUGCAGAAGGUGUAGUGGCGGC [Ertion]” are within 1.5-fold of each other in “apparent KD of MS2 coat protein” value: 0.0232 µM for the first, 0.0259 µM for the second.

“AAAGAAAAACUAGAGGAUAUCUAGAUGAUAACAUGAGGAUCACCCAUGUGAAGAAAGGAAUAUAGGGAGAAGGCUAGAAGAAAAA [JL Nando mod 20]” and “GAAAAACAUGAGGAUCACCCAUGUAAAAAUAUGGGAGGAUAUUCAAACACGAAAGUCAAAGAAGAAGGCCUAAAAG [Garnet 2]” are within 1.5-fold of each other in “apparent KD of MS2 coat protein” value: 0.0218 µM for the first, 0.0304 µM for the second.

First: AAUGAACAUGAGGAUCACCCAUGUUUUAAUAGUUGAGGAUAUAAGGGUGAAAAUAGCACAUUAGAAGGCGAGUGUA [SameState1 Malc#15]
Second: UAUCAUUACACGAAGGAUAUCGAUAAUUGAACAUGAGGAUCACCCAUGUGCCAUUCUUUACAGUUCGAGAAGGUCGAGGGUGAAG [JR_SS002_Sub708]
The “apparent KD of MS2 coat protein” value of the first is 1.8-fold lower: 0.0394 µM for the first, 0.0727 µM for the second.

Compared with “GAAAAACAUGAGGAUCACCCAUGUAGAAAUAUGGGAGGAUAUACGAAGACGAAAGUCGAGGUAGAAGGCCUAAAAG [Garnet 54]”, “UAAAAACAUGAGGAUCACCCAUGUAAGAUAAACACAGGAUAUGCGAAAAGAAACAAAGAAGCAGAAGGGUGAAAAU [Mat - Same State 1 - Tesla mod - 44]” is 2-fold lower in “apparent KD of MS2 coat protein” value: 0.0347 µM for the first, 0.0173 µM for the second.

In the case of “AGGAGACAUGAGGAUCACCCAUGUGAGAAGAGGCGAGGAUAUCGAAAGAAAGAAGAGAAACGAGAAGGCGCGAGUA [salish99-SS1-018]”, the “apparent KD of MS2 coat protein” value is reported as 0.0249 µM.
